Experimental data as given in patent US20130137180.

Experiments:
[1] = tested on: AAVS1 ZFN right (synthetic); test: cell_activity; conditions: pair with left ZFN; A549 clones positive for HindIII site (308 of 933); none with oligo alone
[2] = tested on: AAVS1 ZFN left (synthetic); test: cell_activity; conditions: pair with right ZFN; A549 clones positive for HindIII site (308 of 933); none with oligo alone

Sequence	activity [1] [%]	activity [2] [%]
TAGGGACAGGAT (double strand) [AAVS1 right ZFN binding site]	33	
ACCCCACAGTGG (double strand) [AAVS1 left ZFN binding site]		33
